Results taken from the supplement of paper PMC10126150.
± gives the standard deviation of the averaged measurements.

System: ATP
Assay: switch fluorescence ratio, 500 uM ATP over buffer (Cy3 cluster intensity, sum of 5 cycles each) (fold (ratio)); higher = stronger signal-on switching upon ATP binding; sequences stand for … in TCGTCGGCAGCGTCAGATGTGTATAAGAGACAGTTTTTTTTTTTTTTTTTTTTTTTTT…TC
Conditions: aptamer strand: ATP DNA aptamer (quencher-CACCTGGGGGAGTATTGCGGAGGAAGG + anchor), 100 nM annealed; ATP concentration: 500 uM
Summary of the method: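 The quencher-labelled ATP aptamer, at 100 nM, was annealed to Cy3-labelled switching-strand clusters on a modified Illumina MiSeq flow-cell. The clusters were imaged in selection buffer, then after 15 min with 500 uM ATP at 22 °C, and this buffer/ATP cycle ran five times with NaOH stripping and re-annealing between runs. Per-cluster fluorescence ratios, summed target-cycle over summed buffer-cycle Cy3 intensity, were averaged per switch-domain sequence. Clusters outside 100-1000 RFU were excluded.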
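Also: ATP exposure 15 min at 22 °C before imaging.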

GTTGTGGGTT
switch fluorescence ratio: 0.976 ± 0.022

GTTGTTACGG
switch fluorescence ratio: 1.01 ± 0.037

GTTGTTAGAG
switch fluorescence ratio: 0.989 ± 0.021

GTTGTTAGGT
switch fluorescence ratio: 0.97 ± 0.022

GTTGTTGTGA
switch fluorescence ratio: 0.976 ± 0.02

GTTGTTGTGG
switch fluorescence ratio: 1.02 ± 0.034

GTTGTTTACC
switch fluorescence ratio: 1.02 ± 0.021

GTTTAAAAAG
switch fluorescence ratio: 0.9958 ± 0.0034

GTTTAAAGGT
switch fluorescence ratio: 0.996 ± 0.024

GTTTAACCGG
switch fluorescence ratio: 1.01 ± 0.035

GTTTAAGGAC
switch fluorescence ratio: 0.991 ± 0.038

GTTTACAGGC
switch fluorescence ratio: 0.9875 ± 0.0092

GTTTACGCAC
switch fluorescence ratio: 1.75 ± 0.03

GTTTACTCGT
switch fluorescence ratio: 1.02 ± 0.012

GTTTACTTTT
switch fluorescence ratio: 0.986 ± 0.013

GTTTAGGATT
switch fluorescence ratio: 1.21 ± 0.33

GTTTAGGGGC
switch fluorescence ratio: 0.992 ± 0.023

GTTTAGTAAG
switch fluorescence ratio: 1 ± 0.013

GTTTATACCG
switch fluorescence ratio: 0.996 ± 0.015

GTTTATAGAG
switch fluorescence ratio: 1.01 ± 0.039

GTTTATGTAG
switch fluorescence ratio: 1.01 ± 0.0096

GTTTATGTGA
switch fluorescence ratio: 1.03 ± 0.057

GTTTATTACT
switch fluorescence ratio: 1.01 ± 0.021

GTTTATTCCT
switch fluorescence ratio: 1.02 ± 0.044

GTTTCAGGT
switch fluorescence ratio: 0.991 ± 0.027

GTTTCAGGTT
switch fluorescence ratio: 2.12 ± 1.6

GTTTCATATC
switch fluorescence ratio: 1.02 ± 0.047

GTTTCATGAA
switch fluorescence ratio: 1.01 ± 0.018

GTTTCGAGCG
switch fluorescence ratio: 1.03 ± 0.013

GTTTCGCGA
switch fluorescence ratio: 1.14 ± 0.041

GTTTCGGGTG
switch fluorescence ratio: 1.64 ± 0.84

GTTTCGGTTT
switch fluorescence ratio: 1.1 ± 0.096

GTTTGAATTT
switch fluorescence ratio: 0.989 ± 0.027

GTTTGAGGAG
switch fluorescence ratio: 0.986 ± 0.05

GTTTGAGGCG
switch fluorescence ratio: 1 ± 0.012

GTTTGAGGTG
switch fluorescence ratio: 1 ± 0.044

GTTTGATATA
switch fluorescence ratio: 1.01 ± 0.011

GTTTGCAAGA
switch fluorescence ratio: 1.01 ± 0.028

GTTTGCGGGC
switch fluorescence ratio: 0.947 ± 0.0066

GTTTGGCATG
switch fluorescence ratio: 1.003 ± 0.0051

GTTTGGCCGG
switch fluorescence ratio: 0.998 ± 0.03

GTTTGGCCTT
switch fluorescence ratio: 1.04 ± 0.012

GTTTGGGATG
switch fluorescence ratio: 0.9738 ± 0.0065

GTTTGGGCTT
switch fluorescence ratio: 1.05 ± 0.063

GTTTGGGGTG
switch fluorescence ratio: 0.999 ± 0.043

GTTTGGTGAG
switch fluorescence ratio: 1.01 ± 0.021

GTTTGTACAC
switch fluorescence ratio: 0.986 ± 0.054

GTTTGTCAGG
switch fluorescence ratio: 0.99 ± 0.04

GTTTGTGGAC
switch fluorescence ratio: 0.997 ± 0.035

GTTTGTGGGC
switch fluorescence ratio: 1.01 ± 0.077

GTTTGTGGGG
switch fluorescence ratio: 0.991 ± 0.021

GTTTGTTAGG
switch fluorescence ratio: 1.012 ± 0.0095

GTTTGTTGGC
switch fluorescence ratio: 0.967 ± 0.056

GTTTTACCTG
switch fluorescence ratio: 1 ± 0.03

GTTTTAGGCG
switch fluorescence ratio: 0.986 ± 0.028

GTTTTAGGGG
switch fluorescence ratio: 1.01 ± 0.052

GTTTTATGG
switch fluorescence ratio: 0.982 ± 0.019

GTTTTATGGT
switch fluorescence ratio: 0.968 ± 0.0075

GTTTTATTGC
switch fluorescence ratio: 0.975 ± 0.04

GTTTTCACAG
switch fluorescence ratio: 0.992 ± 0.033

GTTTTCAGCG
switch fluorescence ratio: 1.01 ± 0.022

GTTTTCGGTA
switch fluorescence ratio: 0.9802 ± 8.4e-05

GTTTTCTTAG
switch fluorescence ratio: 0.9737 ± 0.0031

GTTTTCTTAT
switch fluorescence ratio: 0.998 ± 0.029

GTTTTGAGGG
switch fluorescence ratio: 1.01 ± 0.016

GTTTTGGCGT
switch fluorescence ratio: 0.984 ± 0.021

GTTTTGGCTG
switch fluorescence ratio: 1.02 ± 0.036

GTTTTGGGGA
switch fluorescence ratio: 0.996 ± 0.011

GTTTTGGGTA
switch fluorescence ratio: 1.04 ± 0.041

GTTTTGTGTT
switch fluorescence ratio: 0.992 ± 0.0047

GTTTTGTTCC
switch fluorescence ratio: 1.019 ± 0.0041

GTTTTTAATG
switch fluorescence ratio: 0.969 ± 0.011

GTTTTTACGA
switch fluorescence ratio: 1.03 ± 0.027

GTTTTTACGT
switch fluorescence ratio: 1.12 ± 0.14

GTTTTTAGGT
switch fluorescence ratio: 0.98 ± 0.021

GTTTTTAGTT
switch fluorescence ratio: 1.012 ± 0.0084

GTTTTTATGG
switch fluorescence ratio: 0.997 ± 0.03

GTTTTTATTG
switch fluorescence ratio: 0.992 ± 0.042

GTTTTTGACT
switch fluorescence ratio: 0.964 ± 0.03

GTTTTTGATA
switch fluorescence ratio: 0.998 ± 0.02

GTTTTTGGGC
switch fluorescence ratio: 0.985 ± 0.026

GTTTTTGGTC
switch fluorescence ratio: 0.974 ± 0.02

GTTTTTTACG
switch fluorescence ratio: 0.998 ± 0.012

GTTTTTTAGC
switch fluorescence ratio: 0.991 ± 0.069

GTTTTTTAGT
switch fluorescence ratio: 0.988 ± 0.023

GTTTTTTATA
switch fluorescence ratio: 0.995 ± 0.011

GTTTTTTATC
switch fluorescence ratio: 1 ± 0.029

GTTTTTTGAG
switch fluorescence ratio: 1 ± 0.046

GTTTTTTGTC
switch fluorescence ratio: 1.03 ± 0.049

TAAAAACCAT
switch fluorescence ratio: 1.01 ± 0.046

TAAAAACTGG
switch fluorescence ratio: 0.975 ± 0.045

TAAAAACTGT
switch fluorescence ratio: 1.02 ± 0.034

TAAAAAGAAA
switch fluorescence ratio: 0.983 ± 0.043

TAAAAAGATT
switch fluorescence ratio: 0.988 ± 0.019

TAAAAAGCTC
switch fluorescence ratio: 1.01 ± 0.021

TAAAAAGGAA
switch fluorescence ratio: 0.964 ± 0.064

TAAAAAGGGC
switch fluorescence ratio: 0.992 ± 0.057

TAAAAATAGG
switch fluorescence ratio: 1 ± 0.022

TAAAACCAGG
switch fluorescence ratio: 1.21 ± 0.082

TAAAACCCTT
switch fluorescence ratio: 1.04 ± 0.076

TAAAACGCGG
switch fluorescence ratio: 1.07 ± 0.048

TAAAAGAAAA
switch fluorescence ratio: 1 ± 0.062

TAAAAGCGGG
switch fluorescence ratio: 1 ± 0.013

TAAAAGGAAT
switch fluorescence ratio: 0.993 ± 0.018

TAAAAGGATT
switch fluorescence ratio: 0.989 ± 0.042

TAAAAGGCAT
switch fluorescence ratio: 1.03 ± 0.028

TAAAAGGGGG
switch fluorescence ratio: 0.999 ± 0.034

TAAAAGTGGG
switch fluorescence ratio: 1.009 ± 0.003

TAAAAGTTAT
switch fluorescence ratio: 1.01 ± 0.02

TAAAATAAAT
switch fluorescence ratio: 1.016 ± 0.0018

TAAAATGTTG
switch fluorescence ratio: 1.03 ± 0.033

TAAACAGTTC
switch fluorescence ratio: 1.05 ± 0.073

TAAACCGGGT
switch fluorescence ratio: 1.05 ± 0.074

TAAACTACAT
switch fluorescence ratio: 1.006 ± 0.005

TAAACTATGG
switch fluorescence ratio: 1.02 ± 0.062

TAAAGAAATG
switch fluorescence ratio: 0.99 ± 0.033

TAAAGAAGGA
switch fluorescence ratio: 0.977 ± 0.042

TAAAGACGGG
switch fluorescence ratio: 0.978 ± 0.013

TAAAGATAGG
switch fluorescence ratio: 1.026 ± 0.0036

TAAAGCAGCT
switch fluorescence ratio: 0.965 ± 0.04

TAAAGCAGGG
switch fluorescence ratio: 1.01 ± 0.023

TAAAGCGAGC
switch fluorescence ratio: 1.03 ± 0.023

TAAAGCTTCG
switch fluorescence ratio: 1.27 ± 0.041

TAAAGGAAAT
switch fluorescence ratio: 1.09 ± 0.11

TAAAGGCAAG
switch fluorescence ratio: 1.02 ± 0.018

TAAAGGGGGG
switch fluorescence ratio: 1.01 ± 0.047

TAAAGGGTTG
switch fluorescence ratio: 1.02 ± 0.065

TAAAGGTACA
switch fluorescence ratio: 1.03 ± 0.018

TAAAGGTAGG
switch fluorescence ratio: 1.01 ± 0.041

TAAAGGTCGG
switch fluorescence ratio: 0.967 ± 0.028

TAAAGGTGTT
switch fluorescence ratio: 1.09 ± 0.095

TAAAGGTTGA
switch fluorescence ratio: 1.01 ± 0.012

TAAAGTAAGT
switch fluorescence ratio: 1.008 ± 0.01

TAAAGTAATT
switch fluorescence ratio: 0.991 ± 0.039

TAAAGTATAA
switch fluorescence ratio: 0.972 ± 0.026

TAAAGTCATA
switch fluorescence ratio: 1.01 ± 0.022

TAAAGTGAGC
switch fluorescence ratio: 1.028 ± 0.0051

TAAAGTGGGC
switch fluorescence ratio: 1.04 ± 0.038

TAAAGTGGT
switch fluorescence ratio: 0.986 ± 0.043

TAAAGTTACG
switch fluorescence ratio: 1.06 ± 0.032

TAAATACGGG
switch fluorescence ratio: 1.03 ± 0.016

TAAATACTAT
switch fluorescence ratio: 1.01 ± 0.018

TAAATAGTTT
switch fluorescence ratio: 0.993 ± 0.013

TAAATCGGTG
switch fluorescence ratio: 0.977 ± 0.039

TAAATTATTC
switch fluorescence ratio: 1.04 ± 0.037

TAAATTGATT
switch fluorescence ratio: 1.02 ± 0.014

TAAATTGTCG
switch fluorescence ratio: 0.994 ± 0.053

TAAATTTCGA
switch fluorescence ratio: 1.04 ± 0.018

TAAATTTGAG
switch fluorescence ratio: 0.991 ± 0.011

TAAATTTTCT
switch fluorescence ratio: 1.06 ± 0.015

TAAATTTTGG
switch fluorescence ratio: 1.008 ± 0.0096

TAACAATTTC
switch fluorescence ratio: 1.01 ± 0.02

TAACACCTCT
switch fluorescence ratio: 0.988 ± 0.068

TAACACGTCG
switch fluorescence ratio: 0.9947 ± 0.0081

TAACAGGGAG
switch fluorescence ratio: 1.012 ± 0.01

TAACAGGGGT
switch fluorescence ratio: 1.31 ± 0.43

TAACAGGTGA
switch fluorescence ratio: 2.17 ± 0.085

TAACAGTGGG
switch fluorescence ratio: 1.02 ± 0.046

TAACATCTTC
switch fluorescence ratio: 1.01 ± 0.079

TAACATGGCG
switch fluorescence ratio: 0.959 ± 0.11

TAACATGTTC
switch fluorescence ratio: 0.995 ± 0.031

TAACCAGTGG
switch fluorescence ratio: 1.07 ± 0.021

TAACCCGATT
switch fluorescence ratio: 0.997 ± 0.029

TAACCGAGAT
switch fluorescence ratio: 1.01 ± 0.043

TAACCTTAGC
switch fluorescence ratio: 1.29 ± 0.041

TAACGACCGC
switch fluorescence ratio: 1.24 ± 0.03

TAACGCATCT
switch fluorescence ratio: 1.149 ± 0.0052

TAACGGCCTC
switch fluorescence ratio: 1.04 ± 0.023

TAACGGGAGG
switch fluorescence ratio: 0.998 ± 0.017

TAACGGGTG
switch fluorescence ratio: 1.08 ± 0.018

TAACGGTGTG
switch fluorescence ratio: 0.962 ± 0.017

TAACGGTTTT
switch fluorescence ratio: 1.01 ± 0.033

TAACGTGAGT
switch fluorescence ratio: 0.988 ± 0.016

TAACTAGCGA
switch fluorescence ratio: 1.027 ± 0.0041

TAACTCGAAC
switch fluorescence ratio: 1.04 ± 0.023

TAACTTTTTT
switch fluorescence ratio: 1.02 ± 0.042

TAAGAAAGGA
switch fluorescence ratio: 0.997 ± 0.048

TAAGAAGATG
switch fluorescence ratio: 0.9808 ± 0.0014

TAAGAAGGGG
switch fluorescence ratio: 1.02 ± 0.023

TAAGAAGGGT
switch fluorescence ratio: 0.991 ± 0.024

TAAGAATGGG
switch fluorescence ratio: 0.9966 ± 0.0078

TAAGACGTTT
switch fluorescence ratio: 1.0122 ± 0.00032

TAAGACTGAT
switch fluorescence ratio: 1.016 ± 0.0019

TAAGAGCCGT
switch fluorescence ratio: 1.02 ± 0.012

TAAGAGGCCA
switch fluorescence ratio: 1.02 ± 0.017

TAAGAGGGCA
switch fluorescence ratio: 1.01 ± 0.014

TAAGAGGGGG
switch fluorescence ratio: 0.996 ± 0.052

TAAGAGGGTA
switch fluorescence ratio: 0.974 ± 0.06

TAAGATGGCT
switch fluorescence ratio: 1.11 ± 0.092

TAAGATTTGT
switch fluorescence ratio: 0.99 ± 0.02

TAAGATTTTA
switch fluorescence ratio: 1 ± 0.042

TAAGCAGCGA
switch fluorescence ratio: 1.045 ± 0.0036

TAAGCCGCGT
switch fluorescence ratio: 1.008 ± 0.0083

TAAGCGGGTA
switch fluorescence ratio: 1.02 ± 0.016

TAAGCGGGTC
switch fluorescence ratio: 1 ± 0.018

TAAGCTAAGG
switch fluorescence ratio: 1.04 ± 0.016

TAAGCTGCCA
switch fluorescence ratio: 1.02 ± 0.015

TAAGCTGTCA
switch fluorescence ratio: 0.965 ± 0.064

TAAGCTTCAT
switch fluorescence ratio: 1.04 ± 0.18

TAAGGAAAGA
switch fluorescence ratio: 1.08 ± 0.12
